Assay results taken from patent US7732178B2, “Laccase enzymes and their uses” (AB Enzymes Oy, priority 2004, dated 2010).

Assays:
[1] = Specific activity towards di-methoxy-phenol (DMP); type: biochemical; details: 25 mM MES buffer, pH 5.5
Method: (§1) Specific activities of the purified T. arenaria and C. thermophilum laccases were determined towards different laccase substrates.

[2] = Specific activity towards syringaldazine; type: biochemical; details: 25 mM MES buffer, pH 5.5
Method: as §1

[3] = Isoelectric focusing (pI); type: physicochemical; details: pH range 3-9
How it was run: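 Purified Thielavia arenaria and Chaetomium thermophilum laccases resolved by isoelectric focusing over pH 3-9. pI read from focused band position.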

[4] = Denim bleaching at different pH values; set-up: key to After laccase treatment L* / After laccase treatment b* / Increase of L*: CIE L*a*b* colour coordinates (illuminant D65), Minolta reflectance; details: for After laccase treatment L* / After laccase treatment b* / Increase of L*: face side of denim, 30 min, 50° C.
Method: Lee Cooper jeans (MASI Company Oy, Finland) that were desized and treated with neutral ECOSTONE® cellulase were used as test material. Laccase treatments were performed in LP-2 Launder Ometer as follows. About 10 g of denim swatches (15×14 cm) were loaded into 1.2 liter containers containing 200 ml Mc Ilvaine's citrate phosphate buffer pH 5, 6 or 7 and the containers were temperated. Enzyme with or without the mediator (methyl syringate, DeniLite II Assist, Novozymes) was added as laccase activity units. Enzyme was dosed 200 nkat/g and the mediator 10 mg/g on the weight of fabric. […] The Launder Ometer was run at 50° C. for 30 min and after that the temperature in Launder was raised to 80° C. for 10 min. The swatches were carefully rinsed with warm water, dried half-dry in a tumbler and after that air dried.
The bleaching effect was evaluated by measuring the colour as reflectance values with the Minolta Chromameter CM 1000 (Minolta Co.) using L*a*b* color space coordinates (illuminant D65). The colour from both sides of the swatches was measured before and after the laccase treatment. Each measurement was the average of several measurements.

[5] = Specific activity towards ABTS; type: biochemical; details: 25 mM succinate buffer pH 4.5, 25° C.
Method: The activity assay was carried out in accordance with the method developed by Niku-Paavola et al. (1988). The sample was diluted with 0.025 M succinate buffer, pH 4.5. […] The activity is expressed as nano katals.
as §1

[6] = Redox potential of T1 copper, photometric copper titration; type: physicochemical; details: 0.1 M KH2PO4 (pH 6.0)
Method: The purified recombinant Thielavia and Chaetomium laccases were characterized in terms of pH optimum, thermal stability, and pI as described in Example 2. The molecular weight was determined by MALDI-TOF mass spectrometry on a Ultraflex™ time-of-flight instrument (BrukerDaltonics, Germany) as previously described (Palonen et al., 2003). The redox-potentials of the T1 coppers of for CtLcc, and TaLcc2 laccases were determined by photometric copper titration in 0.1 M KH2PO4 (pH 6.0) as described by Xu et al. (1996) using the redox titrant couple K3Fe(CN)6/K4Fe(CN)6. The redox potential of TaLcc1 was determined with a combined Pt—AgCl/KCl microelectrode at pH 5.0 according to Sigoillot et al (2004). The characterization results are collected to Table 14.

[7] = Stain removal, grass soiling; set-up: key to Grass L* / Grass a* / Grass b*: CIE L*a*b* color coordinates from reflectance; details: for Grass L* / Grass a* / Grass b*: 60 min, pH 6
Method: Laccases CtLcc1, TaLcc2, TaLcc4 and Denilite II Base (Example 7) were tested for their ability to remove stains. The following artificially soiled test cloths were used: grass soiling (Art.164, EMPA Testmaterialen, Germany), tea soiling (Art. 167, EMPA Testmaterialen, Germany). The fabric was cut in 5.8×5.8 cm swatches. Laccase treatments were performed in LP-2 Launder Ometer as follows. About 5 g of soiled fabrics were loaded into 1.2 liter containers containing 150 ml Mc Ilvaine's citrate phosphate buffer pH 6 and the containers were temperated. Enzyme with or without the mediator (methyl syringate, DeniLite II Assist, Novozymes) was added as laccase activity units (Example 7). Enzyme was dosed 200 nkat/g and the mediator 10 mg/g on the weight of fabric, except at 40° C. dosages of 20 nkat/g and 2 mg/g were also used. The Launder Ometer was run at 40, 50 or 60° C. and pH 6 for 60 min. After that the swatches were carefully rinsed under running water and in shake flasks containing warm water and dried in the air.
The stain removal effect was evaluated by measuring the colour as reflectance values using L*a*b* color space coordinates (Example 7). The colour of the swatches was measured before and after the laccase treatment.

[8] = pH 5, enzyme 200 nkat/g without the mediator, or mediator 10 mg/g alone
[9] = pH 5, enzyme 200 nkat/g, mediator 10 mg/g
[10] = pH 6, enzyme 200 nkat/g without the mediator, or mediator 10 mg/g alone
[11] = pH 6, enzyme 200 nkat/g, mediator 10 mg/g
[12] = pH 7, enzyme 200 nkat/g without the mediator, or mediator 10 mg/g alone
[13] = pH 7, enzyme 200 nkat/g, mediator 10 mg/g
[14] = 40° C., enzyme 20 nkat/g + mediator 2 mg/g (Mediator only: 0 nkat/g)
[15] = 40° C., enzyme 200 nkat/g + mediator 10 mg/g (Mediator only: 0 nkat/g), RF5571
[16] = 40° C., enzyme 200 nkat/g + mediator 10 mg/g (Mediator only: 0 nkat/g), RF5573
[17] = 40° C., enzyme 200 nkat/g, mediator 0 mg/g
[18] = 50° C., enzyme 200 nkat/g + mediator 10 mg/g (Mediator only: 0 nkat/g)

B1: TaLcc2: Thielavia arenaria ALKO 4197 laccase, SEQ ID NO: 41, produced in Trichoderma reesei (protein)
chain: MLTETLKSRNMLQSILALLATALGSSAFAIPELPEVSLQPRQACENTATSRQCWGDLSIDTNYYEVLPSTGRPPQEYWLSVVEGPCAPDGYNRTCMTFNGTVPGPTLFADWGDELVIHVTNNMVNNGTAIHWHGIRMLNNTLNDGVPGVTQCAIAPGESMTYRFNVTQYGSTWYHSHFSLQYAEGLFGGMILRGPSTANWDEDLGVLFLQDWSHVEAFTRWHEAKAGFPPSLDGGLINGTNTFDCSTLSPTDPKCTGNGKKFETVFEPGKKYLIRLINVAIDGVFQFSIDGHSLTVIATDLVPIVPYTTDSVQITIGQRYDIIVEANATPGNYWMRADWVTACVTNDHPEHMTGIVRYDASSIDPPTSESNVTKTSSCLGEPNEKTIPHLSLDVTNIGGTNVEELSFDTTSGDYFQWTLNTSSLVLDWGNPTMARIFNGDAIFPTEYNVVAVNKTGTGPEWTVLVIQDQSNLPIAHPIHLHGHDFWVLAAEEGVFNGNISSFNTRNPARRDVATLPGRGYLAIAFQIDNPGTWLTHCHIAWHASQGLSLEFVESQSEIVTDEVSRGVFNDVCASWRAHDPLWEQEDSGI
modifications: Thielavia arenaria ALKO4197; (1)..(589) Deduced amino acid sequence of Thielavia arenaria ALKO4197 TaLacc2
For B1, the “Specific activity on DMP” value [1] was 75 nkat/mg, the “Specific activity on syringaldazin” value [2] was 120 nkat/mg and the pI [3] was 3.5. The “After laccase treatment L*” value [4, 8] was 30.11, the “After laccase treatment b*” value [4, 8] was −18.63 and the “Increase of L*” value [4, 8] was −0.02. The “After laccase treatment L*” value [4, 9] was 33.68, the “After laccase treatment b*” value [4, 9] was −17.91 and the “Increase of L*” value [4, 9] was 5.39. The “After laccase treatment L*” value [4, 10] was 29.17, the “After laccase treatment b*” value [4, 10] was −18.51 and the “Increase of L*” value [4, 10] was 0.30. For the same molecule, the “After laccase treatment L*” value [4, 11] was 39.01, the “After laccase treatment b*” value [4, 11] was −17.46 and the “Increase of L*” value [4, 11] was 10.57. For the same molecule, the “After laccase treatment L*” value [4, 12] was 28.24, the “After laccase treatment b*” value [4, 12] was −18.30 and the “Increase of L*” value [4, 12] was 0.77. The “After laccase treatment L*” value [4, 13] was 35.85, the “After laccase treatment b*” value [4, 13] was −18.27 and the “Increase of L*” value [4, 13] was 7.26. The “decolorization of indigo dye of denim compared to DeniLite II Base” value ([4]; pH values 6 and 7, with mediator) was “more efficient”, the “Specific activity on ABTS” value [5] was 360 nkat/mg and the “E^0” value [6] was 450 mV. For the same molecule, the “Grass L*” value [7, 14] was 79.25, the “Grass a*” value [7, 14] was −2.14 and the “Grass b*” value [7, 14] was 16.41. The “Grass L*” value [7, 15] was 79.24, the “Grass a*” value [7, 15] was −0.31 and the “Grass b*” value [7, 15] was 16.72. The “Grass L*” value [7, 16] was 79.19, the “Grass a*” value [7, 16] was −0.26 and the “Grass b*” value [7, 16] was 16.99. For the same molecule, the “Grass L*” value [7, 17] was 80.01, the “Grass a*” value [7, 17] was −4.90 and the “Grass b*” value [7, 17] was 17.63. For the same molecule, the “Grass L*” value [7, 18] was 79.50, the “Grass a*” value [7, 18] was −1.15 and the “Grass b*” value [7, 18] was 17.94. For the same molecule, the “removal of grass soiling with the mediator” value ([7]; CtLcc1 at 60° C., TaLcc2 at 50° C.) was “effective”.
